Reference: paper PMC6531875

Molecular target: Csk (UniProt P41240)
Assay: anti-Flag co-IP, anti-Myc blot
Conditions: reference: Myc-Cbp wild type; sites Y317

Cbp (Csk binding protein, Cbp/PAG1) (from UniProt Q9NWQ8) Myc-Cbp Y317F
binding against the reference: weaker
